Laboratory results as given in the supplement of paper PMC10065799, “High-throughput profiling of sequence recognition by tyrosine kinases and SH2 domains using bacterial peptide display” (eLife, 2023).

Legend:
SHP2-C SH2 = assay: SH2 binding enrichment of the phosphorylated peptide, bacterial display (enrichment ratio); higher = better substrate or ligand; peptides without Tyr show the background
c-Src SH2 = assay: as above
Grb2 SH2 = Grb2 SH2 (UniProt P62993); assay: as above
MERTK = MERTK (UniProt Q12866); assay: phosphorylation enrichment, bacterial display (enrichment ratio); higher = better substrate or ligand; peptides without Tyr show the background
EPHB1 = EPHB1 (UniProt P54762); assay: as above
Jak2 = Jak2 (UniProt O60674); assay: as above
c-Src = assay: as above
FGFR1 = FGFR1 (UniProt P11362); assay: as above
c-Abl (mouse) = assay: as above
Hck = Hck (UniProt P08631); assay: as above
AncSZ = assay: as above
EPHB2 = EPHB2 (UniProt P29323); assay: as above
FGFR3 = FGFR3 (UniProt P22607); assay: as above
Fer (mouse) = assay: as above
Fyn = Fyn (UniProt P06241); assay: as above
Fes = Fes (UniProt P07332); assay: as above
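For SH2 binding enrichment of the phosphorylated peptide, bacterial display in this document: peptide library displayed on the E. coli surface as eCPX fusions, selected cells deep-sequenced, score is each peptide's frequency after selection divided by its frequency in the input.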
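For phosphorylation enrichment, bacterial display in this document: 11-residue human phosphosite peptides and single-mutation variants displayed on the E. coli surface, counted by deep sequencing, each peptide's frequency after selection divided by its frequency in the unselected input library; frequency after pTyr selection over input frequency; kinase dosed for 20-30% of maximal phosphorylation in three min.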

Sequence of FGFR1 (P11362 whole entry, looked up): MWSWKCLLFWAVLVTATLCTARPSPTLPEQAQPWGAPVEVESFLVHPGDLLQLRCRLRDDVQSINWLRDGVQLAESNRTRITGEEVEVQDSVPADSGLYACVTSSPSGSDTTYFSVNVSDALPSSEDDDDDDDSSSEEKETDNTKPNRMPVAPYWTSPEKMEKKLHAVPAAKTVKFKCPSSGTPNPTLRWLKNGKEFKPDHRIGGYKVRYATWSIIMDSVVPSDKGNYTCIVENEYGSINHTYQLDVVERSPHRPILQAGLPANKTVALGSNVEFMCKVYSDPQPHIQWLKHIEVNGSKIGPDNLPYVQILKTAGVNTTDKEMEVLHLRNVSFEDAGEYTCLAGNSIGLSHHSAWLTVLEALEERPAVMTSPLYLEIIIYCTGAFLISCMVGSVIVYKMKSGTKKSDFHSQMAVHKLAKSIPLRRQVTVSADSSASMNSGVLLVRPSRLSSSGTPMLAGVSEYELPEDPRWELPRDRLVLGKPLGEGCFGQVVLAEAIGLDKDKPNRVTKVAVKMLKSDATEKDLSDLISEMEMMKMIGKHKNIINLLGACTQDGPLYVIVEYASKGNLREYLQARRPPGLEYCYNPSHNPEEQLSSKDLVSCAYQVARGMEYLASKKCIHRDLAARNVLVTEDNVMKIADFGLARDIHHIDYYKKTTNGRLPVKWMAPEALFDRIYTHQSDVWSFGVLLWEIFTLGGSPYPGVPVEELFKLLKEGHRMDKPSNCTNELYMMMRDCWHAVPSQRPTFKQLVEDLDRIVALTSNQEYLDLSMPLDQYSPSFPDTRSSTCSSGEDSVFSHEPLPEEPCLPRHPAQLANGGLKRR
Sequence of Jak2 (O60674 whole entry, looked up): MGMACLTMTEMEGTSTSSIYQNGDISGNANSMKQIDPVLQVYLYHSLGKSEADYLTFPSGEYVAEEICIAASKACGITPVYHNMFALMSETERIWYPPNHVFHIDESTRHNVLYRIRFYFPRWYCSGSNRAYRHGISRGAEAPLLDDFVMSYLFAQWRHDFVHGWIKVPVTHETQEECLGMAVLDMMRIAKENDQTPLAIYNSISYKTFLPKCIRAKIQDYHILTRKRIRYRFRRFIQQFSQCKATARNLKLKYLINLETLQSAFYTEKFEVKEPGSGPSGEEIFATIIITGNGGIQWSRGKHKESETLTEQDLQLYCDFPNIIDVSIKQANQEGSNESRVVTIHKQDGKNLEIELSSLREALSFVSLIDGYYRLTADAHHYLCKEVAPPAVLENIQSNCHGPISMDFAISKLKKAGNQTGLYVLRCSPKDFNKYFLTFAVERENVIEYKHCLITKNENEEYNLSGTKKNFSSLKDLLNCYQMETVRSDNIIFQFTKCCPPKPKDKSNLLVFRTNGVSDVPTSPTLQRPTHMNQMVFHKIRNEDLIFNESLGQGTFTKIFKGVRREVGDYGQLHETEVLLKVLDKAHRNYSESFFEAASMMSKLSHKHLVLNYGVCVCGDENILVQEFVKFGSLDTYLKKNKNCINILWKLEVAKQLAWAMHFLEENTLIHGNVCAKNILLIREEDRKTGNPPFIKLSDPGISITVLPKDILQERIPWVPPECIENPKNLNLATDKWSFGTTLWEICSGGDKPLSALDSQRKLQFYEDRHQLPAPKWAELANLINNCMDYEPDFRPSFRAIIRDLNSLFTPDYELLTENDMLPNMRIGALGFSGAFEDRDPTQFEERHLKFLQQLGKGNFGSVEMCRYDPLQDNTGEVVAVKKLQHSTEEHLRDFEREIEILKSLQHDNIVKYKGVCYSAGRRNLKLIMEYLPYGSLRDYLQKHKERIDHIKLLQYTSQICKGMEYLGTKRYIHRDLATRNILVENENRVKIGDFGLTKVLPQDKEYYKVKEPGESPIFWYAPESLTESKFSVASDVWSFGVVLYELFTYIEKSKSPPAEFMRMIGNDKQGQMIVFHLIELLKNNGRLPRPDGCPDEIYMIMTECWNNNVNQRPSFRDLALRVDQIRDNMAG
Sequence of Fes (P07332 whole entry, looked up, the tested form may be a part): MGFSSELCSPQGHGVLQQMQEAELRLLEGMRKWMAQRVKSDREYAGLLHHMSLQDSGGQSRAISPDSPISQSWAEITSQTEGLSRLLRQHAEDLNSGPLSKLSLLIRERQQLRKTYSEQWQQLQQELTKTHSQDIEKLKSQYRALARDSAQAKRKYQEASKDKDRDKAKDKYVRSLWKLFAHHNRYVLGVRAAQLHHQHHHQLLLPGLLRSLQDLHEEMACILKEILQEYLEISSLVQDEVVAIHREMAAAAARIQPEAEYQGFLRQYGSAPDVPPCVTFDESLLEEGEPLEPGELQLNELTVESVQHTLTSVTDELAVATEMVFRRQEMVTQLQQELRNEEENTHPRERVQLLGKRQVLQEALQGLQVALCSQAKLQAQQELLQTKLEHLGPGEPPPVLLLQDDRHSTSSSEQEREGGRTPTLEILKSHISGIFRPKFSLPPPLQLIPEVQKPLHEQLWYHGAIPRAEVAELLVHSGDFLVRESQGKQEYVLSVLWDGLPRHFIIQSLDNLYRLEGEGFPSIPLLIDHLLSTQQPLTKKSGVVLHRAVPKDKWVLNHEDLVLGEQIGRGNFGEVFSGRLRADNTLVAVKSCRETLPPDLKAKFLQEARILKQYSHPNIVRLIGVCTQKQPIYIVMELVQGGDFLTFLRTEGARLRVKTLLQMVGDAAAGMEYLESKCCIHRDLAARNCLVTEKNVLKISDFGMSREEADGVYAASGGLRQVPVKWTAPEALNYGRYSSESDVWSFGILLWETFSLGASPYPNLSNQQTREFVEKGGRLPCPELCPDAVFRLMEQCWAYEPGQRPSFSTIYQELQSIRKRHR
Sequence of Grb2 SH2 (P62993 whole entry, looked up): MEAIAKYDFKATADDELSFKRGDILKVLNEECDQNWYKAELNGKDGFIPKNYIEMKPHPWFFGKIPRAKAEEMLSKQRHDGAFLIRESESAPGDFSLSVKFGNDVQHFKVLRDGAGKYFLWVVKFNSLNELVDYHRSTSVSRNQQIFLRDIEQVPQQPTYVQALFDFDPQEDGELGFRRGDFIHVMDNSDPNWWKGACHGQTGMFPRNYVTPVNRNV
Sequence of Hck (P08631 whole entry, looked up): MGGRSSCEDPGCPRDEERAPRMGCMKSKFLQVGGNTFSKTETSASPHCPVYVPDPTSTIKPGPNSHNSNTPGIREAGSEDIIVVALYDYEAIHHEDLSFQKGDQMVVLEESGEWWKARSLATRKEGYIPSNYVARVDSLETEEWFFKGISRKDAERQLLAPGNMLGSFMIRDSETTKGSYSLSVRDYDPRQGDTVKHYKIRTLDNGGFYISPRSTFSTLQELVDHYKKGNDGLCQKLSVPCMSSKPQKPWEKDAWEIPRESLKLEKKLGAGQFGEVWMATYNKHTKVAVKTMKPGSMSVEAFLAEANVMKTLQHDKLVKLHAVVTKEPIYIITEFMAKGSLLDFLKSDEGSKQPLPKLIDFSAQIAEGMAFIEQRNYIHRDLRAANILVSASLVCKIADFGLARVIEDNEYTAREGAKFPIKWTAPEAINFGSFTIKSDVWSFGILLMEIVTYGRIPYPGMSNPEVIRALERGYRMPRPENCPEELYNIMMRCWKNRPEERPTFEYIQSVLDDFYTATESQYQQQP
Sequence of EPHB2 (P29323 whole entry, looked up): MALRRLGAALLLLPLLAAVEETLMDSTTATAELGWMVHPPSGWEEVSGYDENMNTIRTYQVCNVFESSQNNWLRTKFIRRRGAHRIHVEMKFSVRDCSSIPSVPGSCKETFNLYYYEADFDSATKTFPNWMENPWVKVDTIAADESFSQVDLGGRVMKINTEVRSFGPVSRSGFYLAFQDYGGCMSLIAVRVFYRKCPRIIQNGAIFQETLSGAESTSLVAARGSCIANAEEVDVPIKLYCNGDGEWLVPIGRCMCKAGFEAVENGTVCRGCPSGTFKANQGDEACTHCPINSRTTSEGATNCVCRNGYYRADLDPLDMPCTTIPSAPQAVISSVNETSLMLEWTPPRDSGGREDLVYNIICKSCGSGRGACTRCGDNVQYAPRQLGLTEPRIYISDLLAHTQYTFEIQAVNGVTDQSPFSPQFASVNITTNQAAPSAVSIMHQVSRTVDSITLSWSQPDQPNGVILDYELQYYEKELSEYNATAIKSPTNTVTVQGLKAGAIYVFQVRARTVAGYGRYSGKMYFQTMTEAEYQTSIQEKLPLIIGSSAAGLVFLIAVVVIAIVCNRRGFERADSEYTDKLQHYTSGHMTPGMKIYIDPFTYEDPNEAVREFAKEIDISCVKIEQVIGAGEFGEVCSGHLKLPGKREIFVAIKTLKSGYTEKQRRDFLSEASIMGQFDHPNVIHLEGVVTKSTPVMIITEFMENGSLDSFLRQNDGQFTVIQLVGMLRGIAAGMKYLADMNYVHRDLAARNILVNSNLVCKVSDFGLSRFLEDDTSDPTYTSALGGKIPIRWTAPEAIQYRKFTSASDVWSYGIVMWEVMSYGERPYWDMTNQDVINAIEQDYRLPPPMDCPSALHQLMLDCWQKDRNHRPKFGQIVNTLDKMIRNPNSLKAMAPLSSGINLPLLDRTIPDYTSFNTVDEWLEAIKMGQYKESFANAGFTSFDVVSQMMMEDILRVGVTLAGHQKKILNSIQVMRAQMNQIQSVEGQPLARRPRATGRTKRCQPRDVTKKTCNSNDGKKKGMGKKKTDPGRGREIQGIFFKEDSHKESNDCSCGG

Row | Sequence | SH2 binding enrichment (SHP2-C SH2) | SH2 binding enrichment (c-Src SH2) | SH2 binding enrichment (Grb2 SH2) | phosphorylation enrichment (MERTK) | phosphorylation enrichment (EPHB1) | phosphorylation enrichment (Jak2) | phosphorylation enrichment (c-Src) | phosphorylation enrichment (FGFR1) | phosphorylation enrichment (c-Abl (mouse)) | phosphorylation enrichment (Hck) | phosphorylation enrichment (AncSZ) | phosphorylation enrichment (EPHB2) | phosphorylation enrichment (FGFR3) | phosphorylation enrichment (Fer (mouse)) | phosphorylation enrichment (Fyn) | phosphorylation enrichment (Fes)
1 | SNFRAYATEPH [TNNI3_Y29_YF] | 0.671 | 0.497 | 0.717 | 0.378 | 0.399 | 0.526 | 0.486 | 0.53 | 0.64 | 0.441 | 0.647 | 0.463 | 0.462 | 0.366 | 0.473 | 0.664
2 | VPVDGYISGLL [PAK6_Y81_M76V] | 0.568 | 0.573 | 0.893 | 0.602 | 0.75 | 1.18 | 0.657 | 0.568 | 0.745 | 0.542 | 0.911 | 0.85 | 0.656 | 0.559 | 0.519 | 1.01
3 | LFSINYLHFGE [KDM4C_Y201_YF] | 2.78 | 1.27 | 1.38 | 0.634 | 1.3 | 1.29 | 0.528 | 0.902 | 0.953 | 0.65 | 1.35 | 0.661 | 0.899 | 0.822 | 0.624 | 1.6
4 | GGKYSYLKVGH [GRM3_Y480] | 1.29 | 1.79 | 1.23 | 0.513 | 0.344 | 0.604 | 0.4 | 0.404 | 0.666 | 0.388 | 0.678 | 0.394 | 0.536 | 0.503 | 0.497 | 0.616
5 | KDHRDYKYQPR [SOX9_Y172_P170R] | 1.08 | 1.22 | 1.26 | 0.456 | 0.397 | 0.779 | 0.426 | 0.482 | 0.784 | 0.489 | 0.534 | 0.424 | 0.514 | 0.445 | 0.61 | 0.864
6 | RRIFSYRGHLW [VHL_Y112_H110Y_YF] | 0.495 | 0.498 | 1.07 | 0.6 | 0.47 | 0.587 | 0.905 | 0.731 | 1.1 | 0.712 | 0.834 | 0.541 | 0.619 | 0.536 | 0.763 | 0.897
7 | VATRWYQSPEL [CDKL5_Y177_R178Q] | 0.955 | 1.16 | 0.983 | 0.679 | 0.508 | 0.566 | 0.443 | 0.88 | 0.512 | 0.578 | 1 | 0.774 | 0.754 | 0.531 | 0.43 | 0.832
